Data published in article PMC3882260.

Target: Flag-NEO1 (UniProt Q92859)
Assay: immunostaining of cells or tissue; plate-based cell binding in 384-well plates: transfected COS-7 cells, blocked with PBS 1% BSA, CBLN4-Fc for 1 h on ice, fixed, detected with Alexa Fluor-488 anti-human IgG; candidate screen, titration series and DCC domain mapping

Chain of Flag-NEO1 (Q92859 34-1461): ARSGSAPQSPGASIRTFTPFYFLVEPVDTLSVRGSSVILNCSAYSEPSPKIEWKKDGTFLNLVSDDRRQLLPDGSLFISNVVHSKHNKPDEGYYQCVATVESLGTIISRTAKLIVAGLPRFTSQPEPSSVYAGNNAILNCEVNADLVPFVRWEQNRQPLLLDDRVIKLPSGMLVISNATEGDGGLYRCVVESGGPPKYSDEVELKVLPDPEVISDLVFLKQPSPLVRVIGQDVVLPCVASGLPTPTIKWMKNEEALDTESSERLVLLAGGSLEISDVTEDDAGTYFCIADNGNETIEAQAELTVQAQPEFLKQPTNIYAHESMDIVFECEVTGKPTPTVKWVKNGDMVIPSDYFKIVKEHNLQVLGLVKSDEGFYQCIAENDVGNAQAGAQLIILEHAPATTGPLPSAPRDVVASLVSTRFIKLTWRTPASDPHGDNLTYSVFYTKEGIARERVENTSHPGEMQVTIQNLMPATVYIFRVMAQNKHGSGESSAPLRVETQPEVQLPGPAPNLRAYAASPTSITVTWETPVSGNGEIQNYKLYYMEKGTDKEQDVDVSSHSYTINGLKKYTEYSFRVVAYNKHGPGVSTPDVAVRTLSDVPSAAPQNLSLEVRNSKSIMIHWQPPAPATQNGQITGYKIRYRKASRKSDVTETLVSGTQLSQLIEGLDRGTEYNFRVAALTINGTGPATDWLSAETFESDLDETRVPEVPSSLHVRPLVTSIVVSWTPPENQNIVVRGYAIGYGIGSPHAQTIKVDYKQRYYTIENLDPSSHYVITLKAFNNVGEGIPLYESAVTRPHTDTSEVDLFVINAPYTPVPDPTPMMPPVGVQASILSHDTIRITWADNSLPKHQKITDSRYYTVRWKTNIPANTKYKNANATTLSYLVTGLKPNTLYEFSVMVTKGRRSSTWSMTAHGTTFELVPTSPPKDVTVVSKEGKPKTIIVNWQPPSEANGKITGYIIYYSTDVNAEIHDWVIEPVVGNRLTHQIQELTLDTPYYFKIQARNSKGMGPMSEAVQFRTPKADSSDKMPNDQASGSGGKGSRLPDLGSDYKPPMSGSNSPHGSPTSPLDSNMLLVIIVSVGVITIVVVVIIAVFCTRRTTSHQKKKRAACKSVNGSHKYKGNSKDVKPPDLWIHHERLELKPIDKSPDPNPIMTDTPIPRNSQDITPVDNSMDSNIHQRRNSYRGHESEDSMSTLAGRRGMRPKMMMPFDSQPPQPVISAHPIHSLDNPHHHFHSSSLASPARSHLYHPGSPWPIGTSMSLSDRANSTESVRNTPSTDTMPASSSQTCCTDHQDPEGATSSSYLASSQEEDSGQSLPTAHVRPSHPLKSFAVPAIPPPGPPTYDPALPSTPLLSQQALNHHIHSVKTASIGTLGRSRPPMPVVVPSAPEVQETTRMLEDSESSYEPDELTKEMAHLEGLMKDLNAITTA

- lowest CBLN4-Fc concentration at which binding was detected: 280 nM
Substance: human CBLN4 (M1-L201) with a C-terminal Fc tag (from UniProt Q9NTU7 28-201) (Fc fusion)
